Data set [1] concerns Blanks dsRBD2 mutant. Nature of the data set: fluorescence anisotropy. The conditions noted are these: n=3; assay buffer not given (as in ref 39); protein final buffer 100 mM KAc pH 7.4, 10 mM HEPES pH 7.4, 2 mM MgAc, 5 mM DTT (protein diluted 1:3 into it, then …). Background: Polarisation of emitted light reports the rotation of a fluorescent probe.
Data set [2] relates to Blanks wild-type (cDNA variant). Nature of the data set: fluorescence anisotropy. The conditions noted are these: n=3; assay buffer not given (as in ref 39); protein final buffer 100 mM KAc pH 7.4, 10 mM HEPES pH 7.4, 2 mM MgAc, 5 mM DTT (protein diluted 1:3 into it, then …).

Our source for the Kd values is PMC7144943.

As a reminder, the Kd is the concentration at which binding is half-saturated. With 23 nt ds siRNA (21 bp), the equilibrium dissociation constant (Kd) in data set [1] was 666 nM; in data set [2], 177 nM.
